Details in all cases: both partners purified
For test [1], the target named is T1, CD47 extracellular domain (biotin (enzymatically biotinylated; stated for the SPR experiment)).
T1 construct: CD47 extracellular domain; bought protein Abcam ab174029; source: bought: Abcam (ab174029), enzymatically biotinylated
As to the kind of experiment: SPR; Biacore 3000, 25 °C; ~350 RU enzymatically biotinylated CD47^ext immobilised on a CM5 chip, VHHs flowed over at 40 uL/min in 10 mM HEPES, 150 mM NaCl, 3 mM EDTA, 0.05% P20, pH 7.4; 1:1 Langmuir model; duplicates. In general terms: In SPR one partner is held on a chip, and binding of the other changes the refractive index at the surface.

Test [2] has as its target T1, CD47 extracellular domain. The test can be described thus: ELISA; indirect ELISA; CD47^ext coated at 30 ug/mL overnight at 4 °C; serially diluted VHH, 2.5 h at 37 °C; detected with HRP-conjugated anti-His tag mAb, OD450.
The target in test [3] is T1, CD47 extracellular domain. As to the kind of experiment: ELISA; indirect ELISA after heat treatment of the VHH (10 min at six temperatures, 4 to 70 °C); CD47^ext coated at 30 ug/mL; VHH at 30 ug/mL, 2 h at 37 °C; detected with HRP-conjugated anti-His tag mAb, OD450. (In general: In an ELISA, binding on a coated surface is turned into a signal by an enzyme label.)

Residue numbers refer to the chain shown, from its start. In names and notes the source's numbering stands.

T1 sequence (chain, as listed by the source): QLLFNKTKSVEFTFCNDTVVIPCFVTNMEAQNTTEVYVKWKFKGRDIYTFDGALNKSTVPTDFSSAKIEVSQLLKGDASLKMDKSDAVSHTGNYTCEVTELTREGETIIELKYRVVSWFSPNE

B1: Nb02 quadruple mutant M7 (G107W, T108H, S109V, F110A) (VHH)
VHH: EVQLQASGGGLVQAGGSLRLSCAASGFTNERSQNMGWFRQAPGKEREGVACISSRVVECWYADSVKGRFTISRDNAKNTVYLQMNSLKPEDTAVYYCAAPRAITWHVAVGEHMCDYWGQGTQVTVSS
notes: also called best mutant; lead variant; source: E. coli TransB (DE3), purified (Ni2+ IMAC, HisTrap HP); not shown: His6, C-terminal, kept
Broadly, the Kd is the equilibrium constant for the complex coming apart. For B1, the Kd in test [1] came to 3.2 ± 1 nM. In addition, in test [2], the “ELISA signal relative to M0 at 5.625 ug/mL” value came to 158% and the “ELISA signal relative to M0 at 360 ug/mL” value is ~120%. Besides, the “OD450 at 70 °C relative to 4 °C” value in test [3] was ~45%.

B2: Nb02 mutant M5 (VHH)
VHH: B1 VHH with A108F
notes: One of five triple and two quadruple mutants combined from the round 1 mutations; source: E. coli TransB (DE3), purified (Ni2+ IMAC, HisTrap HP)
With B2, the Kd in test [1] was 25.3 ± 3.7 nM.

B3: Nb02 mutant M2 (VHH)
VHH: B1 VHH with S53Q, H106T, A108F
notes: as for B2
In test [1], B3 returned a Kd of 11.4 ± 2.1 nM.

B4: Nb02 mutant M4 (VHH)
VHH: B1 VHH with S53Q, W105G, V107S
notes: the text says only that M4 includes F110A; One of five triple and two quadruple mutants combined from the round 1 mutations; source: E. coli TransB (DE3), purified (Ni2+ IMAC, HisTrap HP)
As to B4, in test [1], the Kd worked out at 57 ± 7.3 nM.

B5: Nb02 mutant M6 (VHH)
VHH: B1 VHH with S53Q, A108F
notes: as for B2
As for B5, the Kd in test [1] was 58.2 ± 4.5 nM.

B6: Nb02 mutant M1 (VHH)
VHH: B1 VHH with S53Q, V107S, A108F
notes: One of five triple and two quadruple mutants combined from the round 1 mutations (S55Q, G107I, G107W, T108H, S109E, S109V, F110A); source: E. coli TransB (DE3), purified (Ni2+ IMAC, HisTrap HP)
B6 showed a Kd in test [1] of 74.5 ± 5.5 nM.

B7: Nb02 mutant M3 (VHH)
VHH: B1 VHH with S53Q, W105G, A108F
notes: as for B2
Turning to B7, the Kd in test [1] came to 69.5 ± 6.1 nM.

These data come from PMC6747709, “Homology Modeling-Based in Silico Affinity Maturation Improves the Affinity of a Nanobody” (International Journal of Molecular Sciences, 2019).
